Results taken from the supplement of paper PMC9170038.

Test system: MS2 coat protein
Assay: apparent KD of MS2 coat protein; higher = weaker reporter binding
Details: Eterna round: R107
Method in brief: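 Apparent KD is reported per design as the median of normalised binding-curve fits across its clusters. The RNA switches were made by on-chip transcription from Illumina sequencing clusters. SNAP-549-labelled MS2 coat protein was then added in twofold steps (0.7 or 1.5 nM to 3 µM; 0.8–1.5 h to 10–20 min per step) in 100 mM Tris-HCl pH 7.5, 80 mM KCl, 4 mM MgCl2, without or with constant ligand.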

[1] = input ligand: theophylline 20 uM
[2] = input ligand: theophylline 2 mM
[3] = input ligand: tryptophan 2.4 mM

| Sequence | apparent KD of MS2 coat protein (input ligand: arginine 13.2 mM) [µM] | apparent KD of MS2 coat protein (input ligand: none) [µM] | apparent KD of MS2 coat protein [1] [µM] | apparent KD of MS2 coat protein [2] [µM] | apparent KD of MS2 coat protein [3] [µM] |
| --- | --- | --- | --- | --- | --- |
| UUAAUCAUAUAAGAAAACUUAUAUGCAGAAGGAGCGUGAUAAAACACAGGUAGGUCGCUGAAGGGAACAUGAGGAUCACCCAUGU [AstrosSSArgA#7] | 0.028 | 0.0234 | 0.0362 | 0.0324 | 0.0288 |
| UGUAACAUGAGGAUCACCCAUGUGAGUGAUACCAGACUAGUGUUAGUCCCUUGGCAGCACGCUGGACAAAUGUGUAGUCUAUGCG [Same State - Theophylline A (Freestyle 20)] | 0.0402 | 0.0727 | 0.112 | 0.0626 | 0.0705 |
| UUACAUGAGGAUCACCCAUGUCAUAACGAUACCAGAUAGUUAAUGAUCCCUUGGCAGCGUAAUACCUAGACAUUUAAGUCAUAGG [#25 SameState-TheophyllineA] | 0.0353 | – | 0.0632 | – | 0.0509 |
| UUUUUCGCGGGCGAUACCAGCUUGAUCGUACUGGCCUGGUACAUGAGGAUCACCCAUGUAAGCCCUUGGCAGCGCGCGCGAGAAG [#1 Exclusion - Theophylline B Attempt #2 (HarryS)] | 0.0108 | 0.0115 | 0.0177 | 0.0304 | 0.012 |
| AGUCUUAUAGGAAGGAGCGCAUACUUCACAUGAGGAUCACCCAUGUCAAGACGUGAGUCAAUGCAGGUAGGUCGCCUAACUAAGA [Same State - Arginine B (Freestyle 12)] | 0.018 | 0.0188 | 0.0204 | 0.0177 | 0.0146 |
| UUCAGCUAGUCGGCCGCCACUACUUGAGGAUCACCCAAGUAGGUCCACACUGCUUCGGCAGUGAGUAGGACCGGGACUAGCUGAG | 0.0137 | 0.0147 | 0.0135 | 0.0115 | 0.0353 |
| GCGUUGGUCGGAAGGAGCGACAUGAGGAUCACCCAUGUCUCCCGUUAUGGGAGUUCCUUAGGUCAGGUAGGUCGCCGACUGACGC [#1 Exclusion - Arginine B Attempt #20 (Inspired by Omei)] | 0.0961 | 0.209 | 0.193 | 0.15 | 0.143 |
| GGCCUGUGGAGCGAUACCAGCUUGAGUGUACUGGCCAGGUACAUGAGGAUCACCCAUGUAAGCCCUUGGCAGCGCUCCAGAGGCC [#1 Exclusion - Theophylline B Attempt #18 (HarryS)] | 0.00941 | 0.0121 | 0.0164 | 0.0567 | 0.0132 |
| CGUAUUGGAAACAGUACGAGUGAUCCGGUCCGAGGACCGGUACGGCCGCCACUCGAAAUAAAUAAACAUGAGGAUCACCCAUGUA [Ex Tryptophan A 9] | 0.0141 | – | 0.0182 | 0.0219 | – |
| AAGGCUACGACCGAUACCAGUAGACGGCAUUCGUAGGAGAACAUGAGGAUCACCCAUGUCUACCCUUGGCAGCGGAAAAUACACU [theeternabot_exclusion_MS2_Theo_B_16] | 0.0111 | – | 0.0174 | – | 0.0123 |
| UGUAUGUGAUUUGAUACCAGACCAGCUGGUGGUACUUGAGGAUCACCCAAGUAGGUUUGGGUCCCUUGGCAGCAAAUCGCAUACU [SS Theo B #24 Ms10] | 0.165 | 0.163 | 0.142 | 0.0308 | 0.198 |
| GGCUUCAACUCGGCCGCCACUGGUGAUCCUCAUGUACAUGAGGAUCACCCAUGUACAUGAGACUACAGGACCGGGAGAUCAGCAA [Tryptophan B] | 0.0105 | – | 0.0288 | 0.0225 | – |
| GCAUAGUAAAAUGAUACCAGAGUCAAAACAGACAUGAGGAUCACCCAUGUGCAUAUACAACUCCCUUGGCAGCAUUAAAACGGGA [theeternabot_sameState_MS2_Theo_B_28] | 0.0142 | – | 0.0187 | – | 0.0182 |
| GGCACAUAGUCGGCCGCCACUAGUAUAAGAUGGAAUAACAUGAGGAUCACCCAUGUAAAAGGGACUAGGACCGGGACUAUGUGCC [Rat] | 0.0122 | 0.013 | 0.0182 | 0.0154 | 0.0125 |
| GUCAGUGACAGAAGGAGCGACAUGAGGAUCACCCAUGUCUCCCGUUAUGGGAGUUCCUUAGGUCAGGUAGGUCGCUGUCACUGAC [#1 Exclusion - Arginine B Attempt #30 (Inspired by Omei)] | 0.227 | 0.215 | 0.137 | 0.284 | 0.194 |
| UAUCGGCACUGAAGGAGCGAGUUGACAAACAUGAGGAUCACCCAUGUUAUGGGUUGUUAAUCUCAGGUAGGUCGCAGUUGUCGCA [Same State Arginine B GF 19] | 0.221 | 0.334 | 0.403 | 0.576 | 0.5 |
| ACAUGAGGAUCACCCAUGUUAAGCACAGAAGGAGCGUGAAGAAACACAGGUAGGUCGCUGUACUUAUCGAGCGUUAGCUCGAUAC [JR_Nu_SSArginiA_Sub029] | 0.0137 | 0.0231 | 0.029 | 0.0264 | 0.0209 |
| CAUCGUCGGUCGGCCGCCACUACUGGACAUGAGGAUCACCCAUGUGGCCCGCUGUAUUAACCGCGUAGGACCGGGACGGGAGGUA [theeternabot_exclusion_MS2_Trp_B_4] | 0.024 | – | 0.0486 | 0.0393 | – |
| CACAUUUUUAGAAGGGCGGUUUCACUCCUGCGAGGACCGGUACGGCCGCCACUCGACAUGAGGAUCACCCAUGUGGAGAAGUUAG [Laesedti] | 0.0184 | – | 0.0279 | 0.0305 | – |

| Sequence | apparent KD of MS2 coat protein (input ligand: arginine 13.2 mM) [µM] | apparent KD of MS2 coat protein (input ligand: none) [µM] | apparent KD of MS2 coat protein [1] [µM] | apparent KD of MS2 coat protein [2] [µM] | apparent KD of MS2 coat protein [3] [µM] |
| --- | --- | --- | --- | --- | --- |
| ACAUUUAACUGAAGGAGCGUGAUAUUUACAUGAGGAUCACCCAUGUCUUUCAUGAAUAAUUCACAGGUAGGUCGCAGACUAAUGA [JR_ExcArginiB_Sub007] | 0.0968 | 0.116 | 0.159 | 0.158 | 0.129 |
| AGAUCUUUCGAAAGAAGGAUCUUGGCUGAUACCAGAGACGAAAGUCUCCCUUGGCAGCAGUGCCAACAUGAGGAUCACCCAUGUA [Theophylline A 13] | 0.035 | – | 0.0499 | – | 0.0429 |
| GGCACCAGGAGAAGGAGCGUGAAGACAUGAGGAUCACCCAUGUAGAGGCCCGGACAGGGUUCGCAGGUAGGUCGCUCCUGGUGCC [#1 Same State - Arginine B Attempt #10 (HarryS)] | 0.0204 | 0.00829 | 0.245 | 0.122 | 0.0472 |
| AAUGUAUGGCACAUGAGGAUCACCCAUGUGCGAGGACCGGUACGGCCGCCACUCGGUCCUGGGAUCUUACCACUAUACAUUAAUG [XTryp A #21] | 0.0102 | – | 0.0148 | 0.0113 | – |
| AAACUGGGUGUAAAAUAAAUAAUCACUGAUACCAGACUAUAGUAUGUCCCUUGGCAGCAGAAACAUGAGGAUCACCCAUGUAAUA [JR_Nu_ExcTheophyA_Sub024] | 0.0223 | – | 0.023 | – | 0.0252 |
| UGGCGAGAAGGAAGGAGCGUCAGCUGAGUCACAUGAGGAUCACCCAUGUAGCACAUAGUGUGACAGGUAGGUCGCCUUCUGCCCU [SS-ArgB17] | 0.0135 | 0.0103 | 0.0154 | 0.0108 | 0.00941 |
| GAUGAACUAUUUGAUACCAGACUACAUGAGGAUCACCCAUGUGUGUUUAUACUUCUGUCAGUCCCUUGGCAGCAAAUAGUUUAUC [XTheo B #4] | 0.0473 | – | 0.0952 | – | 0.0404 |
| UCAUGAGUUUCGGAUACCAGUGAUGUCGAUACAUGAGGAUCACCCAUGUUAGAGGAUGUACACCCUUGGCAGCCGGGUGUGGCGG [ooimullin] | 0.0337 | 0.143 | 0.102 | 0.102 | 0.113 |
| ACGUUGAAGUCGGCCGCCACUGAUUUCAUGUUCAACAUGAGGAUCACCCAUGUACCUUAUGUUAACAGGACCGGGACGUAUACGA [JR_SSTryptoB_Sub002] | 0.264 | – | 0.341 | 0.551 | – |
| ACAUGAGGAUCACCCAUGUUCCUCAUUGAUACCAGUGAAAGAAGACGCCCUUGGCAGCGAGAAGAAGAAGAAGAAGAAGAAGAGG [6.A] | 0.0484 | 0.725 | 0.425 | 0.671 | 0.588 |
| AGAUUAAAGAGUGAUACCAGACUACAUGAGGAUCACCCAUGUUACAUUUGAGUAGCUUUAGUCCCUUGGCAGCACUUUAUGUACA [JR_Nu_ExcTheophyB_Sub023] | 0.0454 | – | 0.0429 | – | 0.0542 |
| UCCGCGGAGACGGCCGCCACUGAGUGAGAAGUCGUGCUCUAACUACAUGAGGAUCACCCAUGUCCCAGGACCGGGUCGAAGUGUU [theeternabot_sameState_MS2_Trp_B_36] | 0.0974 | – | 0.235 | 0.208 | – |
| AGAUGUAGCGGAAGGAGCGACAUGAGGAUCACCCAUGUCUCCCGUUAUGGGAGUUCCUUAGGUCAGGUAGGUCGCCGUUACGUCA [Omei Arg B SS B v1] | 0.105 | 0.146 | 0.143 | 0.226 | 0.105 |
| GGACUAACCAGAAGGAGCGACACAAAGCAGAAACUGCAUCCUCCGCACGAGGAUCACCCGUGUCAGGUAGGUCGCUGGUUAGUCG [ArgBX 28] | 0.054 | 0.0502 | 0.057 | 0.0504 | 0.0417 |
| AACGUAUACAGAAGGAGCGUGAAUUAUAUUACUCAUUGUUAUACAUGAGGAUCACCCAUGUCACAGGUAGGUCGCUGUAUUCGUA [JR_ExcArginiB_Sub018] | 0.0769 | 0.131 | 0.126 | 0.162 | 0.11 |
| ACAUGAGGAUCACCCAUGUACAUGAGGGAAGGAGCGGUACAUGUGCCAGGUAGGUCGCCCAAGAGCAUCAGCCAUGUACAUCAGC [qasmullin] | 0.0435 | 0.131 | 0.131 | 0.09 | 0.0805 |
| UUACGAGGCUAUCCACUUUGAUUUUGUGAUACCAGAAUAAUUUUAUUCCCUUGGCAGCAUGACAUGAGGAUCACCCAUGUGUCUU [SSTheo A #4] | 0.0343 | – | 0.0474 | – | 0.0425 |
| ACACACAUGAGGAUCACCCAUGUCUAUAUACGAGGACCGGUACGGCCGCCACUCGUGAGAUCGCGAGAGACAGCUUUGGGCUAGU [theeternabot_sameState_MS2_Trp_A_37] | 0.017 | – | 0.0239 | 0.019 | – |
